Assay: yeast display, Sf9 membrane polyspecificity reagent, FACS + sequencing; frameworks hold sequencing errors
In short: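 A synthetic nanobody library was expressed on Saccharomyces cerevisiae BJ5465 by galactose induction for 36–48 hours. The library was stained for 1 hour at 4 °C with 10% biotinylated, detergent-solubilized Sf9 membrane reagent and enriched with streptavidin microbeads before FACS. Low and high (top ~1%) gates were set on anti-HA fluorescence for expression and streptavidin fluorescence for reagent binding, and each polyreactivity label reflects the gate of origin.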

Sequence	polyreactivity (PSR sort gate)
QVQLVESGGGLVQAGGRLRLSCAASGFIFTDNGMGWYRQAPGKERELVAAINSDGSTYYADSVKGRFTISRDNAKNTVYLQMNSLKPEATAVYYCAVDGSITEIYLPGYGYGYWGQGTQVTVSS	low polyreactivity
QVQLVESGGGLVQAGGSLRLSCAASGIIFNYYAMGWYRQAPGKERELVAAITRGGRTNYADSVKGRFTISRDNAKNTVYLQMNSLKPEDTAVYYCNAPAFYTYKSFYAHSGYDYWGQGTQVTVSS	high polyreactivity
QVQLVESAVGLVQAGGSRRLSCAASGRTFDSNAMGWYRQAPGKEREFVAAISWSGGSTYYADSVKGRFTISRDNAKNTVYLQMNSLKREETAVYYCNRLGRHAPATRYGYWGLGTQVTVSS	high polyreactivity
QVQLVESGGGLVQAGGSLRLSCAASGSIFRFKAMGWYRQAPGKERELVAAISWSGGRTYYADSVKGRFTISRDNAKNTVYLQMNSLKPEDTAVYYCAARRSGLKVSPNFGYWGQGTQVTVSS	high polyreactivity
QVQLVESGGGLVQAGGSLRLSCAASGYIFTYYAMGWYRQAPGKERELVAAISRGGSTYYADSVKGRFTISRDNAKYTVYLQMNSLKPEDTAVYYCNARPRWPWVVNFGYYYWGQGTQVTVSS	low polyreactivity
QVQLVESGGGLVQAGGSLRLSCAASGRIFGFYAMGWYRQAPGKERELVAVISNGGGSTYYADSVKGRFTISRDNAKNTVYLQMTSLKPEDTAVYYCAVALKYPRRYYYWGQGTQVTVSS	high polyreactivity
QVQLVESGGGLVQAGGSLRLSCAASGFIFPRYAMGWYRPAPGTERELVAAISRSGGITRYADSVKGRFTISRDNAKNTVYLQINSLKPEDTAVYYCAAYIQGWVTAEWVRDDYWGQGTQVTVSS	high polyreactivity
QVKLVESGGGKVQAGGSLRLSCAASGYTFDPNAIGWYRQEPGKERELVAAISRIGGSTYYADSVKGRFTISRDNAKTTLYVQMNSLKPEDTAVYYCAVDWYLTGHWADDYWGQGTQVTVSS	low polyreactivity
QFQLVESGGGLVQAGGSLRLSCAATGSIIGANAMGWYRQAPGKERELVAAISTRGGRTYYADSVKGRFTISRDNAKNTVYLQMNSLKPEDTAVYYCATSGGRPYKYEYWGQGTQVTVSS	high polyreactivity
QVQLVESGGGLVQAGGSLRLSCAASGRTSWVYAMGWYRQAPGTERELVASIRKRTVVYADSVKGRFTISRDNAKNTVYLQMNSLKPEDTAVYYCNADTTFYGYRTYRPENYWGQGTQVTVSS	high polyreactivity
QVQLLDAGGGLDQAGGSLRLRCAASGSIFRYYPMGWYRQAPGKQREMVASISWSGTSTYYADSVKGRFTISRDNAKNTVYLPRNSLKPEDTAVYYCNKDRWGRYYTRYDYWGQGTQVTVSS	high polyreactivity
QVQLVESGGGLVQAGGSLRLSCAASGITFDVNAMGWYRQAPGKERELVAAITAGGNTYYADSVKGRFTISRDNAKNTVYLQLNSLKPEVTAVYYCATQSYYGFYDYDYWGQGTQVTVSS	low polyreactivity
QVQLVESGGGLVQAGGSLRLSCAAAGSNFLGYAMGWYRQAPGKERELVANITSSGSTSYADSVKGRFTISRDNAKNTVYLQMNSLKPEVTAVYYCAARFRRTYDYWGQGTQVTVSS	high polyreactivity
QVQLVESGGGLVQAGGSLRLSCAASGSIFYANAMGWYRQAPAKERELVAAIRSGGSTNYADSVKGRFTISRDNAKKTVYLQMNSLKPEDTAVYYCAAVWRYWSGQKVGYWGQGTQVTVSS	high polyreactivity
QVQLVESGGGLDQAGGRLRLSSAASGYTFRNYAKGLYRQATGQERELVAAITSSTSSTYYADSVKGRFTISRDNAKNTVYLQMNSLKPEDTAVYYCNRVWSPYMDYWGQGTQVTVSS	high polyreactivity
QVQLVESGGGLDQAGGSLRLSCAASGSIFVTNVMGGYRQAPGKERELVAAISSSGTRTYADSVKGRFTISRDNAKNTVYLQMNSLKTEDTAVYYCAKDYRVWVAATIAHDYWGQGTQVTVSS	low polyreactivity
QVQLVDSGGGLVQAGGSLRLSCAPSGTTYPGYAMGWYRQAPGKERELFAAIDRGGSTSYADSVKGRFTISRDNAKITVYLQMNSLKPEDTAFYYCAAEASVVHKSSDYDSWGQCTQVTVSS	low polyreactivity
QVQLVESGGGLVQAGGSLRLSCAASGSTFQYYTMGWYRQAPGKERELVAAITRSGGRTYYADSVKGRFTISRDNAKNTVYLQMNSLKPEDTAVYYCAALDSRYSGDDYDSWGQGTQVTVSS	high polyreactivity
QVQLVESGGGLVQAGGSRRLSCAASGIIFYPNAMGWYRQAPGKERELVAAITSDGSTYYADSVKGRFTISRDNAKNTVYLQMNSLKPEDTAVYYCAAWDDYGYDYWGQGTQVTVSS	low polyreactivity
QVKLVESGGGLVHAGGSLRLSCSASGRIIGFNAMGVYRQAPGKERELVASIRTTGGSTRYADSVKGRFTISRDNAKNTVSLQMNSLKPEDTAVYYCAARWGKTRWQYNYWGHGTQVTVSS	high polyreactivity
QVQLVESGGGLVQAGGSLRLSCAASGRTLGGYAMGWYRQAPRKERELVAVITWNGGSTYADSVKGRFTISRDNAKNTVYLQMNSLKPVDTAVYYCAARQAYYAAFRTRYGYWGQGTQVTVSS	high polyreactivity
QVQLVESGGGLVQAGGSLRLSCAASGSIFIYYAMGWYRQAPGKERELVAAISFSGARTYYADSVKGRFTISRDNAKNTVFLQMNSLKPEDTAVYYCNVEIGTGDYDYWGQGTQVTVSS	low polyreactivity

Sequence	polyreactivity (PSR sort gate)
QVQLVESGGGLVQAGGSLRLSCAASGIIFIVNAMGWYRQAPGKERELVAAISNGGSTNYADSVKGRFTISRDNAKNTVYLQMNSLKPEDTAVYYCAADDEGWWVTNYDYWGQGTQVTVSS	low polyreactivity
QVQLVESGGGLVQAGGRLRLSCAASGSIFVPNAMGWYRQALGKDRELVAAITYSGVDTYYADSVMGRFTISRDNAKNTVYLQMNSLKPEDTAVYYCAADNGRVGYDYWGQGTQVSVSS	low polyreactivity
QVQLVESGGGLVQAGGSVRLSCAASGNIFLRNAMGWYRQSPGKERELVAAIRRTGGSTYYADSVKGRFTISRDNAKTTVYLQMNSLKPEDTAVYYCAKRSYTGYEYWGQGTQVTVSS	low polyreactivity
QVQLVESGGGLVQAGGSLRLSCAASGSISSKNAMGWYRQAPGKEREFVAVISGTGGSTYYADSVKGRLTISRDNAKNTVYLQMNSLKPEDTAVYYCAAAASSIVSYGYTWTYGYWGQGTQVTVSS	low polyreactivity
QVQLVESGGGLVQAGGSLRLSCAASGFIFRWYAMGWYRQAPGKERELVAAISRSGDSTYYADSVKGRFTISRDNAKNTVYLQMNSLKPEDTAVYYCAADDRYYTYGYDYWGQGTQVTVSS	low polyreactivity
QVHLVESGGGLVQAGGSLRLSCAATGSTFPYNTMGWYRQAPGKERELVAAISSSGGSTYYADSVKGRFTISRDNAKNSVYLQRKSLKPEENAVYYCKAQIVASYQARRYYYWGQGTQVTVSS	low polyreactivity
QVQLVESGGGLVQAGGSLRLSCAASGSTFDYYARGGYRQAPGKERELVAAISRTGGRTYYADSVKGRFTISRDNAKNTVNLQMNSLKPEDTAVYNCNAVTRIGGGDYDYWGQGTQVTVSS	low polyreactivity
QVQLVESGGGLVQAGGSLRLSCAASGSIFAYNAMGWYRQAPGKEREFVAVITRSDDSTYADSVKGRFTISRDNAKNTVFLQMNRLKPEDTAVYDCAAQPFVIDGGYRGDYWGQGTQVTVSS	low polyreactivity
QVQLVESGGGLVQAGGSLRLSCAASGFIFVTYAMGWYRHAPGKERELVAAITNSGGTTYYADSVKGRFTISRDNAKNTVYLQMNSLKPEDTAVYYCNKPYGAETAHREFDYWGQGTQVTVSS	low polyreactivity
QVQLVESGVGLVQAGGSLRVSCAASGSTIPIYAMGWYRQAPGKERELVAVISRSGGITYYADSVKGRFTISRDNAKNTVYLQMNSLKPEDTAVYYCNARTRGWTPDRGYWGQGTQVTVSS	high polyreactivity
QVHLVESGGGLVQAGGSLRLSCAASGLIFGDYAMGWYRQAPGKERELVAAITGSVTRRYYADSVKGRFTISRDNAKNTVYLQMNSLKPEDTAVYYCATVGYPYTLWHQMDYWGQGTQVTVSS	low polyreactivity
QVQLVESGGGLVQAGGSLRLSCAASGTFVSYVMGWYSQPPGKERELVAAINVRGASTYYADSVKGRFTISRDNAKITVYLQMNTLKPEDTAVYYCATEYVSGPEYDYWGQGTQVTVSS	low polyreactivity
QLQLVESGGGLVQAGGSLRLSCAASGSTFYTNAMGWYRQAPGKERELVAVITSRGGGTYYADSVKGRFTISRDNAKNTVYLQMNSLKPEDTAVYYCAAYPLVSWGRHGTKGDYWGQGTQVTVSS	low polyreactivity
QVQLVESGGGLVQAGGSIRLSCAASGSTIGKNVMGWYRQAPGKERELVAAISARGGRTYYGDSVKGRFTISRDNAKNTVYLQMNSLKPVDTAVYYCNTERSYTGTGRYHSSTAYGYWGQGTQVTVSS	high polyreactivity
QVQLEESGGGLVQAGGSLRLSCAASGRIIRINPMGLYRQAPGKERELVAAITRGGTTYADSVKGRFTFSRDNAKNTVYLQMNSLKPEDTAVYYCNARTGRSPTGFLYWGQGTQVTVSS	high polyreactivity
QVQLVESGAGLVQAGVSLRLSCAPSGFTFTGYAMGWYRQSPGKERELVASISKSDGSTYYAESVKGRFTISRDNAKNTVYLQMNSLKPEDTAVFYCAADANTRGSKGRLTHYDYWGQGSQVTVSS	low polyreactivity
QVHLVESGGGLVQAGGSLRLSCAASGGTFSVYGMGWYRPAPGKERELVAAITVTGGRTYYADSVKGRFTISRDNAKNTVYLQMNSLKPVDSAVYYCNTLPWSRTKRDYWGQGTQVTVSS	low polyreactivity
QVQLVESGGGLVQAGGSLRLSCAASGRIFSHYAMAWYRQAPGKERELVAAITSDRSTNYADSVKGRFTISRDNANNTVYLQMNSLKPDDTAVYYCAKYVHIPYYYYLFGSYDYWGQGTQVTVSS	low polyreactivity
QVQLVESGGGLVQAGGSLRLSCAASGSTFATNTLGWYRQAPGKERELVAAISRGTSTKYADSVKGRFTISRDNAKNTVYLQMTCLKPEDTAVSYCNAVSRDKSLYDYWGQGTQVTVSS	high polyreactivity
QVQLVESGGGLVQAGGSLRLSCAASGITFQRYAMGWYRQAPGKERELVAAISTNGGTTYYADSVKGRFTISRDNAKNTVYLQMNSLKPEDTAVYFCNAESGYVYYIRYNYWGQGTQVTVSS	high polyreactivity
QVQLVESGGGLVQAGGSLSLICAASGRTFGPNTMGWYRQAPGKERELVAAITGSGGSTYYADSVKGRFTISRDNAKNTVYLQMNSLKPEDTAVYYCAKSVRYPASDYWGQGTQVTVSS	low polyreactivity

From the nanobody polyreactivity screen of Harvey et al. (2022)
